For assay [1], the target named is human SIRPαBIT (huSIRPαBIT), protein antigen (human) (UniProt P78324). Kind of assay: ELISA, antigen coated.
The target of assay [2] is human SIRPβ1v1 (huSIRPβ1v1) (human) (UniProt O00241). Kind of assay: ELISA, antigen coated.
The target in assay [3] is T1, human SIRPγ (huSIRPγ) (human, UniProt Q9P1W8 29-360, limits assumed, biotinylated in the SPR assay).
T1 construct: Coated on the plate in ELISA, biotinylated and captured in SPR
Kind of assay: ELISA, antigen coated; ELISA (Table 2); finite EC50, below the 100,000 ng/ml cap. On the procedure: ELISA assay: Solutions of huSIRPα₁, huSIRPαBIT, huSIRPβ₁ᵥ₁, huSIRPβ₁ᵥ₂, huSIRPγ and cySIRPα in phosphate buffered saline (PBS) were each added to a multiple well black polystyrene plate for ELISA and allowed to adhere for 1 h at RT. Unbound protein was removed with three washing steps using standard washing buffer. Subsequently, blocking buffer was added to the wells. After 1 h incubation at RT, the wells were washed three times with standard washing buffer. The antibodies in buffer at various concentrations were added to the wells and incubated at RT for 1 h. Unbound antibodies were removed with three washing steps using standard washing buffer. Goat anti human IgG (Fab′)₂:horse radish peroxidase (HRP) in buffer was added to the wells and incubated at RT for 1 h. 3,3′,5,5′-Tetramethylbenzidine (TMB) was added and after sufficient colour development HCl was added. Absorbance was read at 450 nm/620 nm.

For assay [4], the target named is human SIRPαBIT expressed on cells (human) (UniProt P78324). Kind of assay: flow cytometry, U937 cells.
The target of assay [5] is T2, human SIRPα1 (huSIRPα1), protein antigen (human, UniProt P78324 31-370, limits assumed, biotinylated in the SPR assay).
T2 construct: Coated on the plate in ELISA, biotinylated and captured in SPR; also called v2
Kind of assay: ELISA, antigen coated.

Assay [6] concerns the target T3, human SIRPβ1v2 (huSIRPβ1v2) (human, UniProt Q5TFQ8 30-371).
T3 construct: Coated on the plate in ELISA; Only the Ensembl protein number is printed; also called huSIRPß1v2
Kind of assay: ELISA, antigen coated.

Assay [7] concerns the target T4, cynomolgus SIRPα (cySIRPα), protein antigen (cynomolgus monkey, UniProt A0A2K5VYQ9 31-369).
T4 construct: Coated on the plate in ELISA
T4 sequence: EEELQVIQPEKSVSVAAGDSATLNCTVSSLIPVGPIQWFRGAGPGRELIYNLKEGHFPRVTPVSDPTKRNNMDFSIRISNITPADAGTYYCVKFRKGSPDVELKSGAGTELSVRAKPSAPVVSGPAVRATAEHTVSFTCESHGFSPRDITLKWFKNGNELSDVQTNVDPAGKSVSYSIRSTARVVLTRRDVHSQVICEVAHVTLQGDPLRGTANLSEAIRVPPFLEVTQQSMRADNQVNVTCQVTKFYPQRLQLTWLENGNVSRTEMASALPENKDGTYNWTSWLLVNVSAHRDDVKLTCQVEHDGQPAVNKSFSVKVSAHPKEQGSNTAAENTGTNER
Kind of assay: ELISA, antigen coated.

The target of assay [8] is human SIRPαBIT expressed on cells (human) (UniProt P78324). Kind of assay: flow cytometry, ExpiCHO-S cells.
For assay [9], the target named is human SIRPαBIT (huSIRPαBIT), protein antigen (human) (UniProt P78324). Kind of assay: SPR, biotinylated antigen captured, 25 C.
Assay [10] has as its target T2, human SIRPα1 (huSIRPα1), protein antigen. Kind of assay: SPR, biotinylated antigen captured, 25 C.
Assay [11] deals with T1, human SIRPγ (huSIRPγ). Kind of assay: SPR, biotinylated antigen captured, 25 C.
Assay [12] addresses T5, cynomolgus SIRPα expressed on cells (cynomolgus monkey, UniProt A0A2K5VYQ9 31-507).
T5 construct: whole, on cells; also called ExpiCHO-S (cySIRPα)
T5 sequence: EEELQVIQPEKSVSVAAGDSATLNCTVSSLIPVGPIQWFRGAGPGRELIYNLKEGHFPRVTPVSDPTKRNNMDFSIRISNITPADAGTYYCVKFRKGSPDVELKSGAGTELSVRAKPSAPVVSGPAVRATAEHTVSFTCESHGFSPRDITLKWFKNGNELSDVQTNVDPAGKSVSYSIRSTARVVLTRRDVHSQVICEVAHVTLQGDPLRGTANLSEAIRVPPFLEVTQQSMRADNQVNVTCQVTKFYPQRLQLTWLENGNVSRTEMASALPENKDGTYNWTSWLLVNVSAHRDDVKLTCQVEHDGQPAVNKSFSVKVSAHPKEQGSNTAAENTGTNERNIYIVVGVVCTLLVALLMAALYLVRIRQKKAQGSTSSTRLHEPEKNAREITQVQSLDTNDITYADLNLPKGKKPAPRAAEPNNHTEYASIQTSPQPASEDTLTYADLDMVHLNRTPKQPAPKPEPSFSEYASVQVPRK
Kind of assay: flow cytometry, ExpiCHO-S cells.

Assay [13] has as its target T6, human SIRPα1 expressed on cells (human, UniProt P78324 31-504).
T6 construct: whole, on cells; also called ExpiCHO-S (huSIRPα1); CHO cells expressing huSIRPα1
Kind of assay: flow cytometry, ExpiCHO-S cells.

Sequence of human SIRPαBIT expressed on cells (human) (P78324 31-504): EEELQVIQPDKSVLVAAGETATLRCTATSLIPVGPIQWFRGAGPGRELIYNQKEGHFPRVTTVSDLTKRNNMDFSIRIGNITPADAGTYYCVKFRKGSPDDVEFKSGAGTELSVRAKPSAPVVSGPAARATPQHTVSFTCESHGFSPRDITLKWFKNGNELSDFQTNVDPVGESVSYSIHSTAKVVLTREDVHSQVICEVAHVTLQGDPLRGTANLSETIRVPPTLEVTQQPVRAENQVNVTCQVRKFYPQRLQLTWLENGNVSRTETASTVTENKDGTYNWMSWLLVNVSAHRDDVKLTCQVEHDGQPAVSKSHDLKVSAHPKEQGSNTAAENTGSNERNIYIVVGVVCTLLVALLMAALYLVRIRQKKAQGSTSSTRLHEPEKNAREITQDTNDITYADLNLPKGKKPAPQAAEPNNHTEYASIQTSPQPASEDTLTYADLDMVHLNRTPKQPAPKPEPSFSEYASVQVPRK
T1 sequence (Q9P1W8 29-360 limits assumed): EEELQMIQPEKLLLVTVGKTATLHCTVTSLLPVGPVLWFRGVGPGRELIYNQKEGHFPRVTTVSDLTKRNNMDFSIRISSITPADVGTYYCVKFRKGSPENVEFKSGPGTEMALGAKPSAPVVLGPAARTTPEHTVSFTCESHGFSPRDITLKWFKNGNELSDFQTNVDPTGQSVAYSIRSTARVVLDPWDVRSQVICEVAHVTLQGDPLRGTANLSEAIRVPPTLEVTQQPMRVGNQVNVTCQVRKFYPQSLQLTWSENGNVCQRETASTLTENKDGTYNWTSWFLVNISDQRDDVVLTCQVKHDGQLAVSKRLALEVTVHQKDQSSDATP
T2 sequence (P78324 other isoform, or with tags, fused parts or gaps limits assumed): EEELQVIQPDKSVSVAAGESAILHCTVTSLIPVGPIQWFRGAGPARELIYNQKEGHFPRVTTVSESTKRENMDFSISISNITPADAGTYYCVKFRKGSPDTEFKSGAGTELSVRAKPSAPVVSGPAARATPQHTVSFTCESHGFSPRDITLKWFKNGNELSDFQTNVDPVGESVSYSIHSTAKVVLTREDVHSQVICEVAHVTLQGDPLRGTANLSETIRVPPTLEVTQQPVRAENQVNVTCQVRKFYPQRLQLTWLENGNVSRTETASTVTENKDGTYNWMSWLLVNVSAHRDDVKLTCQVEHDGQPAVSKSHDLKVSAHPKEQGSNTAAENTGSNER
Sequence of human SIRPαBIT (huSIRPαBIT), protein antigen (human) (P78324 31-370): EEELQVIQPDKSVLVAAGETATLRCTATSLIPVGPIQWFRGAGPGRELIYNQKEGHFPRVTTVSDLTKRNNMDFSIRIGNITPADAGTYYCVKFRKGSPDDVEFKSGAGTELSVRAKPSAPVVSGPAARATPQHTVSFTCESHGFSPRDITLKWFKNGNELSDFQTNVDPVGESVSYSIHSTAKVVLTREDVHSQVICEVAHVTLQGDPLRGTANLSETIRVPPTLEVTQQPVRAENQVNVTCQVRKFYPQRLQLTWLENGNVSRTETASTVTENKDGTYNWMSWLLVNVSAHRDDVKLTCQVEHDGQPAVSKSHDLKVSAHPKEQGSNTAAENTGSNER
T3 sequence (Q5TFQ8 30-371 limits assumed): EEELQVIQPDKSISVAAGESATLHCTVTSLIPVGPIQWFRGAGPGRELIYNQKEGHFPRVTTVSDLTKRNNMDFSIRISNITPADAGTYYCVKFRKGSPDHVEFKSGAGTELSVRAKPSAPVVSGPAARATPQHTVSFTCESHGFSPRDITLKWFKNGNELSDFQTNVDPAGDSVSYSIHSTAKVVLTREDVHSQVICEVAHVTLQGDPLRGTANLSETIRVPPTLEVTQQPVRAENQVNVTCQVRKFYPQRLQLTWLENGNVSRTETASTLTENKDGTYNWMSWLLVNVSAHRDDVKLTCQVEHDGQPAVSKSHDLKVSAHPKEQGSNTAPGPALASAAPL
Sequence of human SIRPβ1v1 (huSIRPβ1v1) (human) (O00241 30-371): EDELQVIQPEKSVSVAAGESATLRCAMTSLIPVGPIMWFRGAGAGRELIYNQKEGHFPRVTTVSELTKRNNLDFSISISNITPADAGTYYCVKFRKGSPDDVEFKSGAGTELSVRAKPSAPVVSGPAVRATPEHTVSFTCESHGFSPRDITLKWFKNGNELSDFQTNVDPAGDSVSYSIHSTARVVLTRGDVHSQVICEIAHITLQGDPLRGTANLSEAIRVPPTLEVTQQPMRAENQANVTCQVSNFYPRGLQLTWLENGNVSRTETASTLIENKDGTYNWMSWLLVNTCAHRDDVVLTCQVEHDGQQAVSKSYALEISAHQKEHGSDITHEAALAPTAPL
T6 sequence (P78324 other isoform, or with tags, fused parts or gaps limits assumed): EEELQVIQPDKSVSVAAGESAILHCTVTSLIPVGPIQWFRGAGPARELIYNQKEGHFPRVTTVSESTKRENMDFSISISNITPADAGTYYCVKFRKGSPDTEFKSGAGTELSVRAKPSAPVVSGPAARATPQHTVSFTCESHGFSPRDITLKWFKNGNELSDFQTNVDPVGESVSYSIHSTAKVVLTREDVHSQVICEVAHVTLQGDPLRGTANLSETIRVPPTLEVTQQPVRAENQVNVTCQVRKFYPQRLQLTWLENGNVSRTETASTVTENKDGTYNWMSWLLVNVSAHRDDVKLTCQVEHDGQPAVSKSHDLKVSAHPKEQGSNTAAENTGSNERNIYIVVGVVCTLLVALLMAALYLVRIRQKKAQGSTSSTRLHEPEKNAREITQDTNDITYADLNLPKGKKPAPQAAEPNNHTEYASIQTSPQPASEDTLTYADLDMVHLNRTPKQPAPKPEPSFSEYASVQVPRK

B1: anti-SIRPα antibody 3 (antibody, human IgG1, kappa, L234A L235A, V domains shown)
VH: QSVEESGGRLVTPGTPLTLACTVSGFSLISYYISWVRQAPEKGLEYIGIINIGGGASYASWAKGRFTISKTSTTVDLKITSPTPEDTATYFCAMSYGMDTGAFNIWGPGTLVTVSL
VL: AQVLTQTPASVSAAVGGTVTISCQSSESVYKNNFLSWYQQKPGKPPKLLIYGASTLASGVPSRFKGSGSGTQFTLTISDLESDDAATYFCQGGYRTDIYPFGGGTEVVVKR
notes: Rabbit variable regions on human IgG1 LALA / kappa
For B1, the EC50 in assay [1] is 0.024 µg/mL; in assay [2], over 100 µg/mL; in [3] it was 5.22 µg/mL; in [4] it was 0.22 µg/mL; in assay [5], 0.015 µg/mL; in assay [6] it was 0.089 µg/mL. The 50% effective concentration (EC50) in assay [7] was 0.036 µg/mL.

B2: anti-SIRPα antibody 14 humanized (antibody, human IgG1, V domains shown)
VH: RQLVESGGGLVQPGGSLRLSCTASGFSLSSHGISWVRQAPGKGLEYIGTIGTGVITYFASWAKGRFTGSKTSSTAYMELSSLRSEDTAVYFCARGSAWNDPFDPWGQGTLVTVSS
VL: DIEMTQSPSSVSASVGDRVTLTCQASQSVYGNNDLAWYQQKPGQAPKLLIYLASTLATGVPSRFSGSGSGTDFTLTISSLQPEDFATYYCLGGGDDEADNVFGGGTKVEIKR
notes: Humanized, human IgG1 LALA / kappa
For B2, the EC50 in assay [8] is 0.29 µg/mL; in assay [4] it was 0.22 µg/mL; in assay [12], 0.38 µg/mL; in assay [13] it was 0.37 µg/mL. The results for the dissociation constant (Kd) in assay [9] and in [10] were 89 pM and under 10 pM, respectively. Besides, in assay [11], the binding result is “no binding”.
